The text below walks through data of patent US20210063414A1, “METHODS FOR PREVENTING AND/OR TREATING BONE LOSS CONDITIONS BY MODULATING IRISIN” (Dana-Farber Cancer Institute, Inc., priority 2018, published 2021).

The test concerns the target T1, MLO-Y4 cell surface proteins (Mus musculus, UniProt B1AVY7).
T1 construct: endogenous in cells; host or cells: MLO-Y4
T1 sequence (B1AVY7 1-1312): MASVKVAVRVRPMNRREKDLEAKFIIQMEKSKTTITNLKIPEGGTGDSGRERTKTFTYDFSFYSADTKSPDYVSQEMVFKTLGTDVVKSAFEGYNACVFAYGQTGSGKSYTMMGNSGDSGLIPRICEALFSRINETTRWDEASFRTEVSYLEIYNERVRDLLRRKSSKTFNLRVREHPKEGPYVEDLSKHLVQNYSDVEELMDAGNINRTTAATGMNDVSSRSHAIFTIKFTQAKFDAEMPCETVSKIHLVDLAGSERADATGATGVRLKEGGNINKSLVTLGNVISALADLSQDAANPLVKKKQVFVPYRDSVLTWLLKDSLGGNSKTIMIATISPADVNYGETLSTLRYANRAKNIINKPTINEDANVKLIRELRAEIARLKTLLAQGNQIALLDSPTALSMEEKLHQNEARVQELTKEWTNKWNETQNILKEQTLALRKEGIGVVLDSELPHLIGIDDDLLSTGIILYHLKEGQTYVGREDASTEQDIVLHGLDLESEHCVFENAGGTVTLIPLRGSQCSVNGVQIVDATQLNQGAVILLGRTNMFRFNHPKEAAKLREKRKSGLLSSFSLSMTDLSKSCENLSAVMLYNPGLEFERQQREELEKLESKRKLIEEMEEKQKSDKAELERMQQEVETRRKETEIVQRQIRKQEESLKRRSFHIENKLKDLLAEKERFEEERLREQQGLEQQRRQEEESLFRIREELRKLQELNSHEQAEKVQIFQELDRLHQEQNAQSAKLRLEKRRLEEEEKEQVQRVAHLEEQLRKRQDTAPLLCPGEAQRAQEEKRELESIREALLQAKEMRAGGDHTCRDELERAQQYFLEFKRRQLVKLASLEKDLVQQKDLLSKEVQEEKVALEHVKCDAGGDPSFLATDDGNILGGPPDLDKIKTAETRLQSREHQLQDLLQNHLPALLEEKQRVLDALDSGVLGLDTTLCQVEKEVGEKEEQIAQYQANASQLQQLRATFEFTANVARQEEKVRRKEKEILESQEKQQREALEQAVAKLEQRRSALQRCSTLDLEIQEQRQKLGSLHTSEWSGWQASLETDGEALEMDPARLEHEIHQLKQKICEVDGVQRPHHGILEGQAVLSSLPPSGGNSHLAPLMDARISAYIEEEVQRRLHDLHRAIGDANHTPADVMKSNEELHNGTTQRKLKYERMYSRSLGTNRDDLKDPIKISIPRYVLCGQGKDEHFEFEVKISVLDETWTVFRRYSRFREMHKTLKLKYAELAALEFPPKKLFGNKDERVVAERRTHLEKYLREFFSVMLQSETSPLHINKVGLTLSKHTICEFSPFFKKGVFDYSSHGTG
Briefly: Crosslinking/co-immunoprecipitation/mass spectrometry (TMT quantitative proteomics) to identify irisin receptors. Format: binding. Particulars: co-precipitated protein Kif16b (KI16B_MOUSE). A digest of the protocol:
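Mouse MLO-Y4 cells were switched to serum-free FreeStyle medium for 4 h, chilled, then exposed to 10 nM His-tagged irisin (or adipsin as control) for 20 min. Cells were crosslinked with 1.5 mM DTSSP (30 min, ice), and bound proteins were pulled down on Ni-NTA and eluted with 250 mM imidazole. Eluates were separated by SDS-PAGE, trypsin-digested in gel, TMT 6-plex labelled and quantified by MS3-based LC-MS/MS on an Orbitrap Fusion Lumos.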

adipsin: the TMT signal-to-noise ratio was 1117.61.
